Consider six molecules from patent US20250263467A1 (VIR BIOTECHNOLOGY, published 2025).

The target in experiment [1] is SARS-CoV-2 RBD with a Strep Tag II (SARS-CoV-2, UniProt P0DTC2 331-550). Nature of the experiment: BLI (Octet), RBD-Strep Tag II captured, antibody from B cell supernatant. Background: Biolayer interferometry detects binding as a change in optical thickness at a sensor tip.
The target of experiment [2] is SARS-CoV-2 S protein (strain BetaCoV/Wuhan-Hu-1/2019) expressed on transfected cells (SARS-CoV-2 (Wuhan-Hu-1), UniProt P0DTC2 14-1273). The experiment in a line: flow cytometry, B cell supernatant on S-transfected ExpiCHO cells. (A flow cytometer gives signals particle by particle.)
Experiment [3] addresses SARS-CoV-1 RBD (Sino Biological) (SARS-CoV-1, UniProt P59594 306-527). Nature of the experiment: BLI (Octet), antibody on protein A sensors, RBD in solution.
Experiment [4] deals with SARS-CoV-2 RBD (residues 331-550 of spike from BetaCoV/Wuhan-Hu-1/2019, produced in house in Expi-CHO cells) (SARS-CoV-2 (Wuhan-Hu-1), UniProt P0DTC2 331-550). The experiment is described as above.
Experiment [5] deals with His-tagged RBD of SARS-CoV-2 (SARS-CoV-2 (Wuhan-Hu-1), UniProt P0DTC2 331-550). The experiment in a line: BLI (Octet), His-tagged RBD on anti-HIS sensors, antibody in solution.
Experiment [6] concerns the target SARS-CoV-2 Spike protein on pseudotyped virus (SARS-CoV-2 (Wuhan-Hu-1), UniProt P0DTC2 14-1273). The experiment in a line: cell-based or functional assay.

B1: SARS-CoV-2 S303-v1 (antibody, V domains shown)
VH: EVQLVESGGGLVKPGGSLRLSCAASGFTFLTYSMNWVRQTPGKRLQWVSAISGSGGATYYADSVKGRFTISRDNSKNTLYLQMNTVTADDTAIYFCARERDDIFPMGLNAFDIWGQGAMVIVSS
VL: DIQMTQSPSTLSASVGDRVTITCRASQSISNWLAWYQQKPGKAPKLLIYKASSLESGVPSRFSGSGSGTEFTLTISSLQPDDSATYYCQQYDTYSWTFGQGTKVEIK
Consider B1, for which the binding result in experiment [1] and in experiment [2] was “binds” in each case.

B2: S303 rIgG1 (antibody, V domains shown)
VH: EVQLVESGGGLVKPGGSLRLSCAASGFTFLTYSMNWVRQTPGKRLQWVSAISGSGGATYYADSVKGRFTISRDNSKNTLYLQMNTVTADDTAIYFCARERDDIFPMGLNAFDIWGQGAMVIVSS
VL: DIQMTQSPSTLSASVGDRVTITCRASQSISNWLAWYQQKPGKAPKLLIYKASSLESGVPSRFSGSGSGTEFTLTISSLQPDDSATYYCQQYDTYSWTFGQGTKVEIK
Turning to B2, the binding result in experiment [3], in experiment [4] and in experiment [5] was “binds” throughout.

B3: SARS-CoV-2 S302 (antibody, V domains shown)
VH: QVQLVESGGGVVQPGRSLRLSCAASGFTFSSYGMHWVRQAPGKGLEWVAVISYDGSNKYYADSVKGRFTISRDNSKNTLYLQMNSLRAEDTAVYYCAKDISSGWDRVFDYWGQGTLVTVSS
VL: EILLTQSPGTLSLSPGERATLSCRTSQSVGSSYLAWYQQKPGQAPRLLIYAASSRAIGIPDRFSGSGSGTDFTLTISRLEPEDFAVYYCQQYGSSPWTFGQGTKVEIK
As for B3, the binding result in experiment [2] was “binds”.

B4: SARS-CoV-2 S308-v1 (antibody, V domains shown)
VH: QVQLVESGGGVVQPGRSLRLSCAASRFTFSSYGMHWVRQAPGKGLEWVAVIWHDGNNKHYGDSVKGRVTISRDNSKNTLYLQMTSLRAEDTAVYYCARAVTTFKGSGRARMRGMDVWGQGTTVTVSS
VL: DIQLTQSPSFLSASVGDRVTITCRASQGINTYLAWYQQKPGKAPKLLIYAASTLQSGVPSRFSGSGSGTEFTLTISSLQPEDFATYYCQHLDTYPFTFGPGTKVDIK
For B4, the binding result in experiment [2] is listed as “binds”.

B5: S304 rIgG1 (antibody, V domains shown)
VH: EVQLVESGGGLVQPGGSLRLSCAASGFTFSSYDMHWVRQTTGKGLEWVSTIGTAGDTYYPDSVKGRFTISREDAKNSLYLQMNSLRAGDTAVYYCARGDSSGYYYYFDYWGQGTLLTVSS
VL: DIQMTQSPSSLSAAVGDRVTITCRASQSIGSYLNWYQQKPGKAPKLLIYAASSLQSGVPSRFSGSGSGTDFTLTISSLQPEDFAIYYCQQSYVSPTYTFGPGTKVDIK
Consider B5, for which, in experiment [6], the “IC50, neutralization of SARS-CoV-2pp on DBT-ACE2 cells” value was around 17 µg/mL. In addition, in experiment [3], the binding result is on record as “binds”.

B6: S315 rIgG1-LS (antibody, V domains shown)
VH: EVQLVESGGGLVQPGGSLRLSCAASGFTFSNYWMTWVRQAPGKGLEWVANIKQDGSEKYYVDSVKGRFTISRDNAKNSLYLQMNSLRAEDTAVYYCARDLWWNDQAHYYGMDVWGQGTTVTVSS
VL: SYELTQPPSVSVSPGQTARITCSGDAFPNQYAYWYQQKPGQAPVMLIYKDSERPSGIPERFFGSSSGTTVTLTIRGVQAEDEADYYCQSADSSGTVFGGGTKLTVL
Turning to B6, the “IC50, neutralization of SARS-CoV-2pp on DBT-ACE2 cells (further assay)” value in experiment [6] is 25.1 µg/mL.
